# US20250064909A1 (MEDIMABBIO, published 2025)
# T1: TIGIT on cells (human primary T cells, PBMC, NK cells; Promega TIGIT effector cells) (human) (UniProt Q495A1)
# T1 sequence: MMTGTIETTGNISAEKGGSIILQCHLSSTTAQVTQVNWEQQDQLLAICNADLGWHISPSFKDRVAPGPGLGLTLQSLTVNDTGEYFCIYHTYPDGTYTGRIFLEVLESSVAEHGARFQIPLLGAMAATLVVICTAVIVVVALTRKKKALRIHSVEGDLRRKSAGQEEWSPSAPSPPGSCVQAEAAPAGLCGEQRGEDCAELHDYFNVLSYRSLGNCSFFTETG
# T2: recombinant human TIGIT (Sino Biological) (human, UniProt Q495A1 22-138)
# T2 construct: Bought protein; NP_776160.2; also called human TIGIT antigen; hTIGIT
# T2 sequence: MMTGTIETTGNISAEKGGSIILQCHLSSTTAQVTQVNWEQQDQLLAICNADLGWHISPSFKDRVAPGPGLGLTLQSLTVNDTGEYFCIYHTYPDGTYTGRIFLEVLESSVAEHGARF
# T3: recombinant human TIGIT (Acrobiosystems) (human, UniProt Q495A1 22-141)
# T3 construct: Bought protein; also called hTIGIT; human TIGIT antigen
# T3 sequence: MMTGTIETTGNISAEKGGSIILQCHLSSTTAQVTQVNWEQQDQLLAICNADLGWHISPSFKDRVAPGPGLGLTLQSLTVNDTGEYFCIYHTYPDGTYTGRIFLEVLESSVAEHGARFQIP
# Key:
# [1] = molecular target: T1, TIGIT on cells (human primary T cells, PBMC, NK cells; Promega TIGIT effector cells) (human)
# [2] = molecular target: T2, recombinant human TIGIT (Sino …); test: SPR single cycle kinetics; KD divided by KD of the VH0/Vκ0 chimeric antibody;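 also: biacore T200 SPR at 25 °C, IgG captured on anti-human chip, TIGIT analyte in four rising concentrations, 210 s association each, 900 s dissociation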
# Description: (§1) The kinetic test was conducted at 25° C. using the Biacore T200 running Biacore T200 Control software V2.0.1 and Evaluation software V3.0 (GE Healthcare, Uppsala, Sweden).
# (§2) To reduce non-specific binding to the reference surface, HBS-P+ (GE Healthcare, Uppsala, Sweden) supplemented with 1% BSA w/v (Sigma, Dorset, UK) was used as the running buffer and was also used for dilution of ligand and analyte. The supernatant containing IgG was diluted in the running buffer to 1 μg/mL. At the beginning of each cycle, the antibody was loaded onto Fc2, Fc3, and Fc4 on the anti-human sensor chip (GE Healthcare, Little Chalfont, UK). […] Then, the surface was allowed to stabilize.
# (§3) To minimize potential mass transfer effects, recombinant human TIGIT (from Sino Biological) was used as the analyte and injected at a flow rate of 40 μl/min to obtain Single cycle kinetic data. […] For each of the four increasing antigen concentrations, the association phases were monitored for 210 seconds, and after the last antigen injection, a single dissociation phase was measured for 900 seconds. The sensor chip surface was regenerated by a single injection of 3 M MgCl₂.
# [3] = molecular target: T3, recombinant human TIGIT (Acrobiosystems); test: SPR (Biacore T200), multi-cycle kinetics, purified IgG captured on anti-human IgG CM5 chip, TIGIT as analyte, 1:1 fit
# Description: Kinetic experiments were performed at 25° C. using a Biacore T200 operated with Control software V2.0.1 and Evaluation software V3.0 (GE Healthcare, Uppsala, Sweden).
# HBS-P+ (GE Healthcare, Uppsala, Sweden) supplemented with 1% BSA w/v (Sigma, Dorset, UK) was used as the running buffer and was also used for dilution of ligands and analytes. The purified leading antibodies were diluted in the running buffer to a final concentration of 1 μg/mL, and at the initiation of each cycle, were loaded onto Fc2, Fc3, and Fc4 sites on the anti-human IgG CM5 sensor chip (GE Healthcare, Little Chalfont, UK). The antibodies were captured at a flow rate of 10 μl/min until a response level (RL) of ˜150 RU was achieved, followed by a stabilization period.
# To minimize potential mass transfer effects, recombinant human TIGIT (Acrobiosystems, China) was introduced as the analyte at a flow rate of 50 μl/min to obtain multi-cycle kinetic data. […] For each concentration, association phases were monitored for 240 seconds, followed by 900 seconds of monitoring the dissociation phase. The sensor chip surface was regenerated between kinetic cycles by injecting 3M MgCl₂ twice. To ensure the stability of both the surface and the analyte across kinetic cycles, repetitive injections of blank and a single concentration of the analyte were programmed into the kinetic run.
# [4] = molecular target: T2, recombinant human TIGIT (Sino …); test: SPR (Biacore T200), single cycle kinetics, IgG from supernatant captured on anti-human chip, TIGIT as analyte, 1:1 fit;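 also: measured at 25 °C in HBS-P+ with 1% BSA, four ascending TIGIT concentrations, 210 s association per step, one final 900 s dissociation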
# Description: as §1, §2, §3
# [5] = molecular target: T1, TIGIT on cells (human primary T cells, PBMC, NK cells; Promega TIGIT effector cells) (human); remark: listed apart in the source
# [6] = molecular target: T1, TIGIT on cells (human primary T cells, PBMC, NK cells; Promega TIGIT effector cells) (human); remark: listed apart in the source
Molecule,"EC50, NFAT reporter luminescence (TIGIT effector cells + CD155 aAPC/CHO-K1 cells; blocked ligand PVR/CD155) [1] [µg/mL]",Relative KD [2],Kd [3] [nM],koff [3] [s⁻¹],kon [3] [M⁻¹ s⁻¹],Kd [4] [nM],koff [4] [s⁻¹],kon [4] [M⁻¹ s⁻¹],"EC50 of the mixture with pembrolizumab (both antibodies at the same concentration), NFAT reporter luminescence (PD-1+TIGIT+ effector cells + PD-L1+CD155 aAPC/CHO-K1 cells) [5] [µg/mL]","EC50 of the mixture with nivolumab (both antibodies at the same concentration), NFAT reporter luminescence (PD-1+TIGIT+ effector cells + PD-L1+CD155 aAPC/CHO-K1 cells) [6] [µg/mL]"
"7A6 VH0/Vκ0 chimeric antibody (human IgG1, kappa) (antibody, V domains shown, Mouse 7A6 variable regions on human IgG1/kappa constant regions; also called VH0/Vk0; 7A6 VH0Vk0) VH: DVQLQESGPGLVKPSQSLSLTCTVTGYSITSDYAWNWIRQFPGNKLEWMGYISYSGSARYNPSLKSRISITRDTSMNQFFLQLNSVTAEDTATYYCARKGYPAYFAYWGQGTLVTVSS VL: DIVMTQSHKFMSTSVGDRVSISCKASQDVSTAVAWYQQKPGQSPELLIYSASYRYTGVPDRFTGSGSGTDFTFTISSVQAEDLAVYYCQHHYSTPYTFGGGTKLEMKR",,1,0.077,0.000176,2.28e+06,0.652,0.0016,2.46e+06,,
"7A6 VH3/Vκ4 humanized antibody (human IgG1, kappa) (antibody, V domains shown, Tested as IgG in supernatant of transiently transfected HEK293 EBNA cells) VH: QVQLQESGPGLVKPSQTLSLTCTVTGYSITSDYAWNWIRQPPGKGLEWMGYISYSGSARYNPSLKSRVTISRDTSKNQFSLKLSSVTAEDTATYYCARKGYPAYFAYWGQGTLVTVSS VL: DIQMTQSPSSLSASVGDRVTITCRASQDVSTAVAWYQQKPGQAPRLLIYSASYRYTGVPDRFSGSGSGTDFTLTISSLQAEDVAVYYCQHHYSTPYTFGQGTKLEIKR",,1.84,,,,1.2,0.00196,1.63e+06,,
"7A6 VH4/Vκ4 humanized antibody (human IgG1, kappa) (antibody, V domains shown, also called 7A6 VH4/Vk4; 7A6VH4/Vk4) VH: QVQLQESGPGLVKPSQTLSLTCTVTGYSITSDYAWNWIRQPPGKGLEWMGYISYSGSARYNPSLKSRVTISRDTSKNQFSLKLSSVTAADTAVYYCARKGYPAYFAYWGQGTLVTVSS VL: DIQMTQSPSSLSASVGDRVTITCRASQDVSTAVAWYQQKPGQAPRLLIYSASYRYTGVPDRFSGSGSGTDFTLTISSLQAEDVAVYYCQHHYSTPYTFGQGTKLEIKR",,1.98,,,,1.29,0.00192,1.49e+06,,
"7A6 VH4/Vκ3 humanized antibody (human IgG1, kappa) (antibody, V domains shown, Tested as IgG in supernatant of transiently transfected HEK293 EBNA cells) VH: QVQLQESGPGLVKPSQTLSLTCTVTGYSITSDYAWNWIRQPPGKGLEWMGYISYSGSARYNPSLKSRVTISRDTSKNQFSLKLSSVTAADTAVYYCARKGYPAYFAYWGQGTLVTVSS VL: DIQMTQSPSSLSASVGDRVSITCKASQDVSTAVAWYQQKPGQAPRLLIYSASYRYTGVPDRFSGSGSGTDFTLTISSLQAEDVAVYYCQHHYSTPYTFGQGTKLEIKR",,1.45,,,,0.944,0.00175,1.85e+06,,
"7A6 VH5/Vκ1 humanized antibody (human IgG1, kappa) (antibody, V domains shown, Tested as IgG in supernatant of transiently transfected HEK293 EBNA cells) VH: QVQLQESGPGLVKPSQTLSLTCTVTGYSITSDYAWNWIRQPPGKGLEWMGYISYSGSARYNPSLKSRVTISVDTSKNQFSLKLSSVTAADTAVYYCARKGYPAYFAYWGQGTLVTVSS VL: DIVMTQSHSFLSASVGDRVSITCKASQDVSTAVAWYQQKPGQAPELLIYSASYRYTGVPDRFTGSGSGTDFTLTISSLQAEDVAVYYCQHHYSTPYTFGQGTKLEMKR",,1.32,,,,0.858,0.00124,1.45e+06,,
"7A6 VH4/Vκ2 humanized antibody (human IgG1, kappa) (antibody, V domains shown, Tested as IgG in supernatant of transiently transfected HEK293 EBNA cells) VH: QVQLQESGPGLVKPSQTLSLTCTVTGYSITSDYAWNWIRQPPGKGLEWMGYISYSGSARYNPSLKSRVTISRDTSKNQFSLKLSSVTAADTAVYYCARKGYPAYFAYWGQGTLVTVSS VL: DIVMTQSPSSLSASVGDRVSITCKASQDVSTAVAWYQQKPGQAPRLLIYSASYRYTGVPDRFTGSGSGTDFTLTISSLQAEDVAVYYCQHHYSTPYTFGQGTKLEIKR",,1.63,,,,1.06,0.00185,1.75e+06,,
"7A6 VH4/Vκ1 humanized antibody (human IgG1, kappa) (antibody, V domains shown, Tested as IgG in supernatant of transiently transfected HEK293 EBNA cells) VH: QVQLQESGPGLVKPSQTLSLTCTVTGYSITSDYAWNWIRQPPGKGLEWMGYISYSGSARYNPSLKSRVTISRDTSKNQFSLKLSSVTAADTAVYYCARKGYPAYFAYWGQGTLVTVSS VL: DIVMTQSHSFLSASVGDRVSITCKASQDVSTAVAWYQQKPGQAPELLIYSASYRYTGVPDRFTGSGSGTDFTLTISSLQAEDVAVYYCQHHYSTPYTFGQGTKLEMKR",,0.94,,,,0.616,0.00107,1.73e+06,,
"7A6 VH4/Vκ5 humanized antibody (human IgG1, kappa) (antibody, V domains shown, Tested as IgG in supernatant of transiently transfected HEK293 EBNA cells) VH: QVQLQESGPGLVKPSQTLSLTCTVTGYSITSDYAWNWIRQPPGKGLEWMGYISYSGSARYNPSLKSRVTISRDTSKNQFSLKLSSVTAADTAVYYCARKGYPAYFAYWGQGTLVTVSS VL: DIQMTQSPSSLSASVGDRVSITCKASQDVSTAVAWYQQKPGQAPRLLIYSASYRYTGVPDRFSGSGSGTDFTLTISSLQPEDFATYYCQHHYSTPYTFGQGTKLEIKR",,1.41,,,,0.922,0.00162,1.76e+06,,

# Continued, values first:
"EC50, NFAT reporter luminescence (TIGIT effector cells + CD155 aAPC/CHO-K1 cells; blocked ligand PVR/CD155) [1] [µg/mL]",Relative KD [2],Kd [3] [nM],koff [3] [s⁻¹],kon [3] [M⁻¹ s⁻¹],Kd [4] [nM],koff [4] [s⁻¹],kon [4] [M⁻¹ s⁻¹],"EC50 of the mixture with pembrolizumab (both antibodies at the same concentration), NFAT reporter luminescence (PD-1+TIGIT+ effector cells + PD-L1+CD155 aAPC/CHO-K1 cells) [5] [µg/mL]","EC50 of the mixture with nivolumab (both antibodies at the same concentration), NFAT reporter luminescence (PD-1+TIGIT+ effector cells + PD-L1+CD155 aAPC/CHO-K1 cells) [6] [µg/mL]",Molecule
1.24,,,,,,,,,,MBSA43 control (antibody)
3.74,,,,,,,,0.611,0.923,"TIG1 Arcus (antibody, from another filing, V domains shown) VH: DVQLVESGGGLVQPGGSRKLSCAASGFTFSNFGMHWVRQAPEKGLEWVAFISSGSSSIYYADTVKGRFTISRDNPKNTLFLQMTSLRSEDTAMYYCARMRLDYYAMDYWGQGTSVTVSS VL: DVQITQSPSYLAASPGETITINCRASKSISKYLAWYQEKPGKTNKLLIYSGSTLQSGIPSRFSGSGSGTDFTLTISSLEPEDFAMYYCQQHNEYPWTFGGGTKLEIK"
,2.55,,,,1.66,0.00204,1.23e+06,,,"7A6 VH5/Vκ2 humanized antibody (human IgG1, kappa) (antibody, V domains shown, Tested as IgG in supernatant of transiently transfected HEK293 EBNA cells) VH: QVQLQESGPGLVKPSQTLSLTCTVTGYSITSDYAWNWIRQPPGKGLEWMGYISYSGSARYNPSLKSRVTISVDTSKNQFSLKLSSVTAADTAVYYCARKGYPAYFAYWGQGTLVTVSS VL: DIVMTQSPSSLSASVGDRVSITCKASQDVSTAVAWYQQKPGQAPRLLIYSASYRYTGVPDRFTGSGSGTDFTLTISSLQAEDVAVYYCQHHYSTPYTFGQGTKLEIKR"
,1.92,,,,1.25,0.0017,1.36e+06,,,"7A6 VH5/Vκ5 humanized antibody (human IgG1, kappa) (antibody, V domains shown, Tested as IgG in supernatant of transiently transfected HEK293 EBNA cells) VH: QVQLQESGPGLVKPSQTLSLTCTVTGYSITSDYAWNWIRQPPGKGLEWMGYISYSGSARYNPSLKSRVTISVDTSKNQFSLKLSSVTAADTAVYYCARKGYPAYFAYWGQGTLVTVSS VL: DIQMTQSPSSLSASVGDRVSITCKASQDVSTAVAWYQQKPGQAPRLLIYSASYRYTGVPDRFSGSGSGTDFTLTISSLQPEDFATYYCQHHYSTPYTFGQGTKLEIKR"
,2.33,,,,1.52,0.00181,1.19e+06,,,"7A6 VH5/Vκ4 humanized antibody (human IgG1, kappa) (antibody, V domains shown, Tested as IgG in supernatant of transiently transfected HEK293 EBNA cells) VH: QVQLQESGPGLVKPSQTLSLTCTVTGYSITSDYAWNWIRQPPGKGLEWMGYISYSGSARYNPSLKSRVTISVDTSKNQFSLKLSSVTAADTAVYYCARKGYPAYFAYWGQGTLVTVSS VL: DIQMTQSPSSLSASVGDRVTITCRASQDVSTAVAWYQQKPGQAPRLLIYSASYRYTGVPDRFSGSGSGTDFTLTISSLQAEDVAVYYCQHHYSTPYTFGQGTKLEIKR"
,2.32,,,,1.51,0.00189,1.25e+06,,,"7A6 VH5/Vκ3 humanized antibody (human IgG1, kappa) (antibody, V domains shown, Tested as IgG in supernatant of transiently transfected HEK293 EBNA cells) VH: QVQLQESGPGLVKPSQTLSLTCTVTGYSITSDYAWNWIRQPPGKGLEWMGYISYSGSARYNPSLKSRVTISVDTSKNQFSLKLSSVTAADTAVYYCARKGYPAYFAYWGQGTLVTVSS VL: DIQMTQSPSSLSASVGDRVSITCKASQDVSTAVAWYQQKPGQAPRLLIYSASYRYTGVPDRFSGSGSGTDFTLTISSLQAEDVAVYYCQHHYSTPYTFGQGTKLEIKR"
